Substrate: O=c1ccn([C@@H]2O[C@H](CO[P@@](=O)(O)O[P@@](=O)(O)O[C@H]3O[C@H](CO)[C@@H](O)[C@H](O)[C@H]3O)[C@@H](O)[C@H]2O)c(=O)[nH]1
Assay: purified protein
Conditions: His-tagged protein in proteoliposomes

B1: CSLD3 (Arabidopsis thaliana) (protein)
chain: MASNNHFMNSRSNLSTNSDAAEAERHQQPVSNSVTFARRTPSGRYVNYSRDDLDSELGSVDLTGYSVHIPPTPDNQPMDPSISQKVEEQYVSNSLFTGGFNSVTRAHLMEKVIDTETSHPQMAGAKGSSCAVPGCDVKVMSDERGQDLLPCECDFKICRDCFMDAVKTGGMCPGCKEPYRNTDLADFADNNKQQRPMLPPPAGGSKMDRRLSLMKSTKSGLMRSQTGDFDHNRWLFETSGTYGFGNAFWTKDGNFGSDKDGNGHGMGPQDLMSRPWRPLTRKLQIPAAVISPYRLLILIRIVVLALFLMWRIKHKNPDAIWLWGMSVVCELWFALSWLLDQLPKLCPINRATDLNVLKEKFETPTPSNPTGKSDLPGLDMFVSTADPEKEPPLVTSNTILSILAADYPVEKLACYVSDDGGALLTFEAMAEAASFANMWVPFCRKHNIEPRNPDSYFSLKRDPYKNKVKADFVKDRRRVKREYDEFKVRINSLPDSIRRRSDAYHAREEIKAMKLQRQNRDEEIVEPVKIPKATWMADGTHWPGTWINSGPDHSRSDHAGIIQVMLKPPSDEPLHGVSEGFLDLTDVDIRLPLLVYVSREKRPGYDHNKKAGAMNALVRASAIMSNGPFILNLDCDHYIYNSQALREGMCFMMDRGGDRLCYVQFPQRFEGIDPSDRYANHNTVFFDVNMRALDGLMGPVYVGTGCLFRRIALYGFDPPRAKEHHPGFCSCCFSRKKKKSRVPEENRSLRMGGDSDDDEEMNLSLVPKKFGNSTFLIDSIPVAEFQGRPLADHPAVQNGRPPGALTIPRELLDASTVAEAIAVISCWYEDKTEWGSRIGWIYGSVTEDVVTGYRMHNRGWKSVYCVTKRDAFRGTAPINLTDRLHQVLRWATGSVEIFFSRNNAFFASPRMKILQRIAYLNVGIYPFTSFFLIVYCFLPALSLFSGQFIVQTLNVTFLVYLLIISITLCLLALLEIKWSGISLEEWWRNEQFWLIGGTSAHLAAVIQGLLKVVAGIEISFTLTSKSGGEDVDDEFADLYIVKWTSLMIPPITIMMVNLIAIAVGFSRTIYSVIPQWSKLIGGVFFSFWVLAHLYPFAKGLMGRRGRTPTIVYVWSGLVAITISLLWVAINPPAGSTQIGGSFTFP
Km: 62 µM
